Assay results taken from the RNAGym collection of RNA variant scans (doi:10.1021/acssynbio.7b00057).

B1: Pistol ribozyme (parent)
chain: GGGUCGUUGUUCCAUAAUCGCGUGGAUAUGGCACGCAAGUUUCUACCGGGCACCGUAAAUGUCCGACUGGAGCCGUUCGGGCGGCUAUAAACAGACCUCAGGCCCGAAGCGUGGCGGCACCUGCCGCCGGUGGUAAAAAAGAUCGGAAGAGCACACGUCU

Variants of: B1
Test: aptazyme ON/OFF ratio, guanine; higher = stronger switching; co-transcriptional cleavage with and without guanine

For U7C U8C G9U U10A U11G, which “aptazyme ON/OFF ratio” value is on record?
Its value is 1.34.

With U7C U8C G9U U10A U11C as the variant, how does the “aptazyme ON/OFF ratio” value read?
Its value is 1.16.

Which “aptazyme ON/OFF ratio” value does the source give for U7C U8C G9U U10C U11C C12U C13A here?
Its value is 1.08.

For U7C U8C G9U U10C U11C C12U C13U, which “aptazyme ON/OFF ratio” value is on record?
Its value is 1.08.

Which “aptazyme ON/OFF ratio” value does the source give for U7C U8C G9U U10C U11C C12U C13G here?
The value was 1.1.

Which “aptazyme ON/OFF ratio” value does the source give for U7C U8C G9U U10A U11C C12U C13A here?
The value was 1.16.

With U7C U8C G9U U10A U11C C12U C13U as the variant, how does the “aptazyme ON/OFF ratio” value read?
Its value is 1.15.

With U7C U8C G9U U10A U11C C12U C13G as the variant, how does the “aptazyme ON/OFF ratio” value read?
The value was 1.14.

For U7C U8C U10C C13U, which “aptazyme ON/OFF ratio” value is on record?
Its value is 2.08.

With U7C U8C U10C C13G as the variant, how does the “aptazyme ON/OFF ratio” value read?
Its value is 1.24.

Which “aptazyme ON/OFF ratio” value does the source give for U7C U8C U10C C13A here?
Its value is 1.24.

For U7C U8C G9U U10A C12A C13G, which “aptazyme ON/OFF ratio” value is on record?
Its value is 1.07.

With U7C U8C G9U U10A C12A C13U as the variant, how does the “aptazyme ON/OFF ratio” value read?
The value was 1.2.

For U7C U8C G9U U10A C12A C13A, which “aptazyme ON/OFF ratio” value is on record?
The value was 1.2.

For U7C U8C U10A U11A C12A C13U, which “aptazyme ON/OFF ratio” value is on record?
Its value is 1.13.

Which “aptazyme ON/OFF ratio” value does the source give for U7C U8C U10A U11A C12A C13G here?
The value was 1.11.

For U7C U8C U10A U11A C12A C13A, which “aptazyme ON/OFF ratio” value is on record?
Its value is 1.1.

For U7C U8C G9U U10C U11A C13U, which “aptazyme ON/OFF ratio” value is on record?
The value was 1.23.

With U7C U8C G9U U10C U11A C13G as the variant, how does the “aptazyme ON/OFF ratio” value read?
Its value is 1.14.

With U7C U8C G9U U10C U11A C13A as the variant, how does the “aptazyme ON/OFF ratio” value read?
Its value is 1.2.

Which “aptazyme ON/OFF ratio” value does the source give for U7C U8C G9U U10C U11C C12A C13G here?
Its value is 1.18.

For U7C U8C G9U U10C U11C C12A C13U, which “aptazyme ON/OFF ratio” value is on record?
The value was 1.16.

Which “aptazyme ON/OFF ratio” value does the source give for U7C U8C G9U U10C U11C C12A C13A here?
Its value is 1.12.

For U7C U8C U10A C13G, which “aptazyme ON/OFF ratio” value is on record?
The value was 1.05.

Which “aptazyme ON/OFF ratio” value does the source give for U7C U8C U10A C13U here?
The value was 1.04.

For U7C U8C U10A C13A, which “aptazyme ON/OFF ratio” value is on record?
Its value is 1.06.

Which “aptazyme ON/OFF ratio” value does the source give for U7C U8C G9U U10C here?
The value was 2.52.

With U7C U8C G9U U10A as the variant, how does the “aptazyme ON/OFF ratio” value read?
The value was 1.13.

With U7C U8C G9U U10G as the variant, how does the “aptazyme ON/OFF ratio” value read?
Its value is 1.42.

For U7C U8C G9U U10G U11G C13G, which “aptazyme ON/OFF ratio” value is on record?
Its value is 1.13.

For U7C U8C G9U U10G U11G C13U, which “aptazyme ON/OFF ratio” value is on record?
The value was 1.08.

For U7C U8C G9U U10G U11G C13A, which “aptazyme ON/OFF ratio” value is on record?
The value was 1.1.

Which “aptazyme ON/OFF ratio” value does the source give for U7C U8C G9U U10G U11A C12U C13U here?
The value was 1.21.

With U7C U8C G9U U10G U11A C12U C13A as the variant, how does the “aptazyme ON/OFF ratio” value read?
Its value is 1.1.

With U7C U8C G9U U10G U11A C12U C13G as the variant, how does the “aptazyme ON/OFF ratio” value read?
Its value is 1.12.

For U7C U8C G9U U10G C12G, which “aptazyme ON/OFF ratio” value is on record?
The value was 1.15.

Which “aptazyme ON/OFF ratio” value does the source give for U7C U8C G9U U10G C12A here?
The value was 1.22.

Which “aptazyme ON/OFF ratio” value does the source give for U7C U8C G9U U10G C12U here?
Its value is 1.33.

For U7C U8C U10C U11A C12A C13G, which “aptazyme ON/OFF ratio” value is on record?
The value was 1.17.

Which “aptazyme ON/OFF ratio” value does the source give for U7C U8C U10C U11A C12A C13A here?
The value was 1.33.

With U7C U8C U10C U11A C12A C13U as the variant, how does the “aptazyme ON/OFF ratio” value read?
The value was 1.45.

Which “aptazyme ON/OFF ratio” value does the source give for U7C U8C G9U U11A C12U C13U here?
Its value is 1.2.

With U7C U8C G9U U11A C12U C13A as the variant, how does the “aptazyme ON/OFF ratio” value read?
Its value is 1.18.

With U7C U8C G9U U11A C12U C13G as the variant, how does the “aptazyme ON/OFF ratio” value read?
Its value is 1.12.

Which “aptazyme ON/OFF ratio” value does the source give for U7C U8C U10C U11A C12A here?
The value was 1.31.

For U7C U8C U10C U11A C12U, which “aptazyme ON/OFF ratio” value is on record?
The value was 1.32.

With U7C U8C U10C U11A C12G as the variant, how does the “aptazyme ON/OFF ratio” value read?
The value was 1.05.

For U7C U8C G9U U10G U11A C12G, which “aptazyme ON/OFF ratio” value is on record?
Its value is 1.25.

With U7C U8C G9U U10G U11A C12A as the variant, how does the “aptazyme ON/OFF ratio” value read?
The value was 1.37.

With U7C U8C G9U U10G U11A C12U as the variant, how does the “aptazyme ON/OFF ratio” value read?
Its value is 1.17.

Which “aptazyme ON/OFF ratio” value does the source give for U7C U8C U10A here?
The value was 1.35.

With U7C U8C U10C as the variant, how does the “aptazyme ON/OFF ratio” value read?
Its value is 1.26.

Which “aptazyme ON/OFF ratio” value does the source give for U7C U8C G9U U10G C12A C13G here?
Its value is 1.1.

Which “aptazyme ON/OFF ratio” value does the source give for U7C U8C G9U U10G C12A C13A here?
The value was 1.06.

Which “aptazyme ON/OFF ratio” value does the source give for U7C U8C G9U U10G C12A C13U here?
Its value is 1.1.

With U7C U8C G9U U11A C12U as the variant, how does the “aptazyme ON/OFF ratio” value read?
The value was 1.25.

With U7C U8C G9U U11A C12A as the variant, how does the “aptazyme ON/OFF ratio” value read?
The value was 1.21.

Which “aptazyme ON/OFF ratio” value does the source give for U7C U8C G9U U11A C12G here?
Its value is 1.18.

Which “aptazyme ON/OFF ratio” value does the source give for U7C U8C G9U U10C U11G C12A C13G here?
The value was 1.11.

For U7C U8C G9U U10C U11G C12A C13A, which “aptazyme ON/OFF ratio” value is on record?
The value was 1.11.

With U7C U8C G9U U10C U11G C12A C13U as the variant, how does the “aptazyme ON/OFF ratio” value read?
The value was 1.12.

Which “aptazyme ON/OFF ratio” value does the source give for U7C U8C G9U U10G C12G C13U here?
Its value is 1.09.

With U7C U8C G9U U10G C12G C13G as the variant, how does the “aptazyme ON/OFF ratio” value read?
Its value is 1.07.

For U7C U8C G9U U10G C12G C13A, which “aptazyme ON/OFF ratio” value is on record?
Its value is 1.09.

For U7C U8C G9U U10A U11G C12U C13A, which “aptazyme ON/OFF ratio” value is on record?
The value was 1.06.

With U7C U8C G9U U10A U11G C12U C13U as the variant, how does the “aptazyme ON/OFF ratio” value read?
The value was 1.14.

Which “aptazyme ON/OFF ratio” value does the source give for U7C U8C G9U U10A U11G C12U C13G here?
Its value is 1.13.

For U7C U8C G9U U10C U11C C13U, which “aptazyme ON/OFF ratio” value is on record?
The value was 1.04.

With U7C U8C G9U U10C U11C C13G as the variant, how does the “aptazyme ON/OFF ratio” value read?
Its value is 1.1.

For U7C U8C G9U U10C U11C C13A, which “aptazyme ON/OFF ratio” value is on record?
Its value is 1.02.

With U7C U8C U10A U11G C13G as the variant, how does the “aptazyme ON/OFF ratio” value read?
The value was 1.18.

Which “aptazyme ON/OFF ratio” value does the source give for U7C U8C U10A U11G C13A here?
The value was 1.25.

For U7C U8C U10A U11G C13U, which “aptazyme ON/OFF ratio” value is on record?
Its value is 1.18.

With U7C U8C G9U U10C U11G C12G C13U as the variant, how does the “aptazyme ON/OFF ratio” value read?
The value was 1.08.

For U7C U8C G9U U10C U11G C12G C13A, which “aptazyme ON/OFF ratio” value is on record?
Its value is 1.14.

With U7C U8C G9U U10C U11G C12G C13G as the variant, how does the “aptazyme ON/OFF ratio” value read?
The value was 1.09.

Which “aptazyme ON/OFF ratio” value does the source give for U7C U8C G9U U10C C12U here?
The value was 1.32.

Which “aptazyme ON/OFF ratio” value does the source give for U7C U8C G9U U10C C12A here?
The value was 1.29.

With U7C U8C G9U U10C C12G as the variant, how does the “aptazyme ON/OFF ratio” value read?
Its value is 1.22.

With U7C U8C G9U U10A U11C C13A as the variant, how does the “aptazyme ON/OFF ratio” value read?
The value was 1.15.

For U7C U8C G9U U10A U11C C13U, which “aptazyme ON/OFF ratio” value is on record?
The value was 1.1.

For U7C U8C G9U U10A U11C C13G, which “aptazyme ON/OFF ratio” value is on record?
Its value is 1.07.

With U7C U8C G9U U10C C13G as the variant, how does the “aptazyme ON/OFF ratio” value read?
Its value is 1.08.

With U7C U8C G9U U10C C13U as the variant, how does the “aptazyme ON/OFF ratio” value read?
Its value is 3.5.
